Experimental findings from patent US20060264615A1 (MAXYGEN, published 2006) are described below.

The labels stand for the following.
T1: wild-type human p40 polypeptide (human, UniProt P29460 23-328)
T1 construct: Secreted from COS-7 or 293 cells co-transfected with a p35 nucleic acid; also called wt-p40
T1 sequence: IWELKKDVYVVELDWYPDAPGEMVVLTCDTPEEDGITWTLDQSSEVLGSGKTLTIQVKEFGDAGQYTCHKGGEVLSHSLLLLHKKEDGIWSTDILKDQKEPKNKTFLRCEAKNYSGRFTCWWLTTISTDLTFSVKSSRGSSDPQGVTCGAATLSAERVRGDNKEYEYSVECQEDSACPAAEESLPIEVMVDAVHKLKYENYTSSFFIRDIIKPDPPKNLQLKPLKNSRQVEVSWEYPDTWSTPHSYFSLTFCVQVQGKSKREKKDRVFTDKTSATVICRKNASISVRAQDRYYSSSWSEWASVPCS

T2: modified p35 polypeptide R2-571 with C-terminal EHtag
T2 construct: Recombinant (shuffled) p35 variant with the EHtag fused to its C-terminus; also called R2-571-EHtag
T2 chain: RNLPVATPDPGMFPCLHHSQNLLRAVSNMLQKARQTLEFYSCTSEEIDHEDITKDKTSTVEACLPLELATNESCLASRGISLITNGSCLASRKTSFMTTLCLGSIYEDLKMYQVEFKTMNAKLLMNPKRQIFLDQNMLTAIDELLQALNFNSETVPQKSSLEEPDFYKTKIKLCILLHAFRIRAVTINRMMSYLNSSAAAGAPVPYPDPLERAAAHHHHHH

B1: modified p40 polypeptide B1-81 (ligand)
chain: IWELEKNVYVVELDWYPDAPGETVVLACDTPEEDGITWTSDQSSEVLGTGKTLTIHVKEFGDAGQYTCRKGGAVLSQSLLLLHKKEDGIWSTDILKDQKKPKNKIFLKCEAKNYSGRFTCWWLTAISTDLKFTVKSSRGSSDPQGVTCGAVTLSAERVSMDHREYNKYTVECQEGSACPSAEESLPIEVVVDAIHKLKYENYTSRFFIRDIIKPDPPKNLQLRPLKNSRHVEISWEYPDTWSTPHSYFSLTFCVQVQGKNKREKKLFMDQTSAKVTCHKDAKIRVQARDRYHSSSWSEWASVPCS
B2: modified p40 polypeptide A3-48 (ligand)
chain: IWELEKNVYVVELDWYPDAPGEMVVLACDTPEEDGITWTSDQSSEVLGTGKTLTIHVKEFGDAGQYTCHKGGKVLSRSLLLLHKKEDGIWSTDILKDQKEPKNKSFLKCEAKNYSGRFTCWWLTTISTDLTFSVKSSRGSTDPHGVTCGTATLSEDLGEYKKYRVECQEGSACPAAEESLPIEVVLEAVHKLKYENYTSSFFIRDIIKPDPPKNLQLRPLKNSRQVEVNWEYPDTWSTPHSYFSLTFCVQVQGRNKREKKLFMDQTSAKVTCHKDAKIRVQARDRYYSSSWSDWASVSCG
B3: wild-type human p35 polypeptide with C-terminal EHtag (ligand)
chain: RNLPVATPDPGMFPCLHHSQNLLRAVSNMLQKARQTLEFYPCTSEEIDHEDITKDKTSTVEACLPLELTKNESCLNSRETSFITNGSCLASRKTSFMMALCLSSIYEDLKMYQVEFKTMNAKLLMDPKRQIFLDQNMLAVIDELMQALNFNSETVPQKSSLEEPDFYKTKIKLCILLHAFRIRAVTIDRVTSYLNASAAAGAPVPYPDPLERAAAHHHHHH
notes: wt-p35 with the EHtag fused to its C-terminus; also called wt-p35-EHtag
B4: modified p40 polypeptide A16-94 (ligand)
chain: IWELKKDVYVVELDWYPDAPGEMVVLACDTPEEDGITWTSDQSSEVLGTGKTLTIHVKEFGDAGQYTCHKGGTVLSQSLLLLHKKEDGIWSTDILKDQKEPKNKSFLKCEAKNYSGRFTCWWLTAISTDLKFTVKSSRGSTDPRGVTCGTATLSEDLGEYKKYRVECQEGSACPAAEESLPIEVVLEAVHKLKYENYTSSFFIRDIIKPDPPKNLQLRPLKNSRHVEVSWEYPDTWSAPHSYFSLTFGVQVQGRNKREDRLFMDQTSAKVVCHKDAKIRVQARDRYYSSSWSEWASVSLQSV
B5: modified p40 polypeptide C2-22 (ligand)
chain: IWELKKDVYVVELDWYPNAPGETVVLTCDTPEEDGITWTSDQSSEVLGTGKTLTIHVKEFGDAGQYTCRKGGEALSRSLLLLHKKEDGIWSTDILKDQKEPKNKSFLKCEAKNYSGRFTCWWLTTISTDLKFSVKSSRGSTDPRGVTCGTATLSEDLGEYKKYRVECQEGSACPAAEESLPIEVVLEAVHKLKYENYTSSFFIRDIIKPDPPKNLQLKPLKNSRHVEVSWGYPDTWSTPHSYFSLTFCIQVQGKSKREKKDRIFTDKTSATVICRKNAKIRVQARDRYYSSFWSEWASVSCS
notes: Recombinant (shuffled) p40 variant; the mature region is stated as residues 23-324; also called p40C2-22
B6: modified p40 polypeptide B8-96 (ligand)
chain: IWELEKNVYVVELDWYPDAPGEMVVLACDTPEEDGITWTSDQSSEVLGTGKTLTIHVKEFGDAGQYTCRKGGAVLSQSLLLLHKKEDGIWSTDILKDQKEPKNKSFLKCEAKNYSGRFTCWWLTTISTDLKFSVKSSRGSSDPRGVTCGAALLSAEKVSLEHREYKKYRVECQEGSACPAAEESLPIEVVLEAVHKLKYENYTSSFFIRDIIKPDPPKNLQLRPLKNSRQVEVNWEYPDTWSTPHSYFSLTFCVQVQGKNKREKKLFMDQTSAKVTCHKDAKIRVQARDRYYSSSWSEWASVPCS
B7: modified p40 polypeptide B2-52 (ligand)
chain: IWELEKNVYVVELDWYPDAPGEMVVLACDTPEEDGITWTSDQSSGVLGTGKTLTIHVKEFGDAGQYTCRKGGAVLSQSLLLLHKKEDGIWSTDILKDQKEPKAKSFLKCEAKDYSGHFTCWWLTTISTDLKFSVKSSRGSSDPQGVTCGAVTLSAERVSMDHREYNKYTVECQEGSACPSAEESLPIEVVVDAIHKLKYENYTSSFFIRDIIKPDPPKNLQLRPLKNSRQVEVNWEYPDTWSTPHSYFSLTFCVQVQGKNKREKKLFMDQTSAKVTCHKDAKIRVQARDRYYSSSWSEWASVPCS
B8: wild-type human p35 polypeptide (ligand)
chain: RNLPVATPDPGMFPCLHHSQNLLRAVSNMLQKARQTLEFYPCTSEEIDHEDITKDKTSTVEACLPLELTKNESCLNSRETSFITNGSCLASRKTSFMMALCLSSIYEDLKMYQVEFKTMNAKLLMDPKRQIFLDQNMLAVIDELMQALNFNSETVPQKSSLEEPDFYKTKIKLCILLHAFRIRAVTIDRVTSYLNAS
notes: Secreted from COS-7 or 293 cells co-transfected with a p40 nucleic acid; also called wt-p35

Assay [1] concerns the target B8. In words: immunoblot with anti-p35 mAB of COS-7 culture medium; ~70 kDa p40/p35 heterodimer band (FIG. 7).
The target in assay [2] is T1, wild-type human p40 polypeptide. In words: Western blot with anti-E tag mAB of heterodimer purified on an anti-E affinity column through the p35 EHtag (FIG. 14). The source says:
(§1) Co-expressing in mammalian cells a modified p40 nucleic acid of the invention plus a modified p35 nucleic acid of the invention produces a substantially more homogenous heterodimeric protein than the heterodimeric protein produced by co-expressing a wt-p40 nucleic acid and a wt-p35 nucleic acid. […] Both the modified p35 nucleic acid and the wt-p35 nucleic acid also comprised a C-terminal EHtag coding sequence.

Assay [3] concerns the target T2, modified p35 polypeptide R2-571 with …. The description is as above.
Description: as §1

In assay [4] the target is T1, wild-type human p40 polypeptide. The assay is described as follows: immunoblot with anti-p35 mAB of COS-7 culture medium; ~70 kDa p40/p35 heterodimer band, control (FIG. 7).

Consider B1, for which, in assay [1], the binding result was “binds”.
On the same count and under the same terms, the result for B2 reads “binds”.
Consider B3, for which, in assay [2], the binding result is “binds”.
Take B4: the binding result in assay [1] is reported as “binds”.
Turning to B5, the binding result in assay [1] and in assay [3] was “binds” each time.
Take B6: the binding result in assay [1] is given as “binds”.
Same read-out and setting: for B7 the value was “binds”.
For B8, in assay [4], the binding result is “binds”.
